Test results reported in US20150299281A1 (ZEALAND PHARMA A S, published 2015).
Numbered stars: 1 amine (or outer) side, 2 acyl side, 3 side chain; on linkers, the order of the positions; unused ones are H or OH. Square brackets hold non-standard residues; d marks the D form. Side chains are listed from the residue outwards. * marks the point of attachment. γGlu = O=C(O)[C@H](CCC(=O)[*:2])N[*:1]; Palmitoyl = CCCCCCCCCCCCCCCC(=O)*; Aib = CC(C)(N)C(=O)O

Experiments:
[1] = molecular target: T1, human GIP receptor (human, UniProt P48546 22-466); assay: cell-based or functional assay
T1 sequence (looked up): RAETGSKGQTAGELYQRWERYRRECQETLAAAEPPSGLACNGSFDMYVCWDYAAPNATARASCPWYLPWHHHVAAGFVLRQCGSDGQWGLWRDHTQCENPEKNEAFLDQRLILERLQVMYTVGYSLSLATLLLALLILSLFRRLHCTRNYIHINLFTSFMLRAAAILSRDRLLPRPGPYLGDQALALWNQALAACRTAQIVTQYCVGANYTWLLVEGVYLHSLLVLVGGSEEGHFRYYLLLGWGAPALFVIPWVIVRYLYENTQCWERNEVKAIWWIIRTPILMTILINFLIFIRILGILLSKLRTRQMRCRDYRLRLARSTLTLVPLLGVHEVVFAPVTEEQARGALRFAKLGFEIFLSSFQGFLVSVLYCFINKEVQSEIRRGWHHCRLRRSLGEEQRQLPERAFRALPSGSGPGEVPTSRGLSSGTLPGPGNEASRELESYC

[2] = molecular target: human GLP-1 receptor (human, UniProt P43220 24-463); assay: cell-based or functional assay

| Binder | EC50, cAMP induction in HEK293 cells expressing human GIP R [1] [nM] | EC50, cAMP induction in HEK293 cells expressing human GLP-1 R [2] [nM] |
| --- | --- | --- |
| H-Y[Aib]EGTFTSDYSIYLDSK([γGlu-Palmitoyl])AAHDFVEWLLSAGPSSGAPPPS-NH2 (SMILES CCCCCCCCCCCCCCCC(=O)N[C@@H](CCC(=O)NCCCC[C@H](NC(=O)[C@H](CO)NC(=O)[C@H](CC(=O)O)NC(=O)[C@H](CC(C)C)NC(=O)[C@H](Cc1ccc(O)cc1)NC(=O)[C@@H](NC(=O)[C@H](CO)NC(=O)[C@H](Cc1ccc(O)cc1)NC(=O)[C@H](CC(=O)O)NC(=O)[C@H](CO)NC(=O)[C@@H](NC(=O)[C@H](Cc1ccccc1)NC(=O)[C@@H](NC(=O)CNC(=O)[C@H](CCC(=O)O)NC(=O)C(C)(C)NC(=O)[C@@H](N)Cc1ccc(O)cc1)[C@@H](C)O)[C@@H](C)O)[C@@H](C)CC)C(=O)N[C@@H](C)C(=O)N[C@@H](C)C(=O)N[C@@H](Cc1c[nH]cn1)C(=O)N[C@@H](CC(=O)O)C(=O)N[C@@H](Cc1ccccc1)C(=O)N[C@H](C(=O)N[C@@H](CCC(=O)O)C(=O)N[C@@H](Cc1c[nH]c2ccccc12)C(=O)N[C@@H](CC(C)C)C(=O)N[C@@H](CC(C)C)C(=O)N[C@@H](CO)C(=O)N[C@@H](C)C(=O)NCC(=O)N1CCC[C@H]1C(=O)N[C@@H](CO)C(=O)N[C@@H](CO)C(=O)NCC(=O)N[C@@H](C)C(=O)N1CCC[C@H]1C(=O)N1CCC[C@H]1C(=O)N1CCC[C@H]1C(=O)N[C@@H](CO)C(N)=O)C(C)C)C(=O)O) [Compound 53] | 0.062 | 0.092 |
| H-Y[Aib]EGTFTSDYSIYLDEK([γGlu-Palmitoyl])AAKDFVEWLLSA-NH2 (SMILES CCCCCCCCCCCCCCCC(=O)N[C@@H](CCC(=O)NCCCC[C@H](NC(=O)[C@H](CCC(=O)O)NC(=O)[C@H](CC(=O)O)NC(=O)[C@H](CC(C)C)NC(=O)[C@H](Cc1ccc(O)cc1)NC(=O)[C@@H](NC(=O)[C@H](CO)NC(=O)[C@H](Cc1ccc(O)cc1)NC(=O)[C@H](CC(=O)O)NC(=O)[C@H](CO)NC(=O)[C@@H](NC(=O)[C@H](Cc1ccccc1)NC(=O)[C@@H](NC(=O)CNC(=O)[C@H](CCC(=O)O)NC(=O)C(C)(C)NC(=O)[C@@H](N)Cc1ccc(O)cc1)[C@@H](C)O)[C@@H](C)O)[C@@H](C)CC)C(=O)N[C@@H](C)C(=O)N[C@@H](C)C(=O)N[C@@H](CCCCN)C(=O)N[C@@H](CC(=O)O)C(=O)N[C@@H](Cc1ccccc1)C(=O)N[C@H](C(=O)N[C@@H](CCC(=O)O)C(=O)N[C@@H](Cc1c[nH]c2ccccc12)C(=O)N[C@@H](CC(C)C)C(=O)N[C@@H](CC(C)C)C(=O)N[C@@H](CO)C(=O)N[C@@H](C)C(N)=O)C(C)C)C(=O)O) [Compound 52] | 0.087 | 0.18 |
| H-Y[Aib]EGTFTSDYSIYLDSKAAHDFVEWLLSAGPSSGAPPPS-NH2 (SMILES CC[C@H](C)[C@H](NC(=O)[C@H](CO)NC(=O)[C@H](Cc1ccc(O)cc1)NC(=O)[C@H](CC(=O)O)NC(=O)[C@H](CO)NC(=O)[C@@H](NC(=O)[C@H](Cc1ccccc1)NC(=O)[C@@H](NC(=O)CNC(=O)[C@H](CCC(=O)O)NC(=O)C(C)(C)NC(=O)[C@@H](N)Cc1ccc(O)cc1)[C@@H](C)O)[C@@H](C)O)C(=O)N[C@@H](Cc1ccc(O)cc1)C(=O)N[C@@H](CC(C)C)C(=O)N[C@@H](CC(=O)O)C(=O)N[C@@H](CO)C(=O)N[C@@H](CCCCN)C(=O)N[C@@H](C)C(=O)N[C@@H](C)C(=O)N[C@@H](Cc1c[nH]cn1)C(=O)N[C@@H](CC(=O)O)C(=O)N[C@@H](Cc1ccccc1)C(=O)N[C@H](C(=O)N[C@@H](CCC(=O)O)C(=O)N[C@@H](Cc1c[nH]c2ccccc12)C(=O)N[C@@H](CC(C)C)C(=O)N[C@@H](CC(C)C)C(=O)N[C@@H](CO)C(=O)N[C@@H](C)C(=O)NCC(=O)N1CCC[C@H]1C(=O)N[C@@H](CO)C(=O)N[C@@H](CO)C(=O)NCC(=O)N[C@@H](C)C(=O)N1CCC[C@H]1C(=O)N1CCC[C@H]1C(=O)N1CCC[C@H]1C(=O)N[C@@H](CO)C(N)=O)C(C)C) [Compound 55] | 0.0071 | 0.0087 |
| H-Y[Aib]EGTFTSDYSIYLDKKAQRAFVNWLLA[Aib]K-NH2 (SMILES CC[C@H](C)[C@H](NC(=O)[C@H](CO)NC(=O)[C@H](Cc1ccc(O)cc1)NC(=O)[C@H](CC(=O)O)NC(=O)[C@H](CO)NC(=O)[C@@H](NC(=O)[C@H](Cc1ccccc1)NC(=O)[C@@H](NC(=O)CNC(=O)[C@H](CCC(=O)O)NC(=O)C(C)(C)NC(=O)[C@@H](N)Cc1ccc(O)cc1)[C@@H](C)O)[C@@H](C)O)C(=O)N[C@@H](Cc1ccc(O)cc1)C(=O)N[C@@H](CC(C)C)C(=O)N[C@@H](CC(=O)O)C(=O)N[C@@H](CCCCN)C(=O)N[C@@H](CCCCN)C(=O)N[C@@H](C)C(=O)N[C@@H](CCC(N)=O)C(=O)N[C@@H](CCCNC(=N)N)C(=O)N[C@@H](C)C(=O)N[C@@H](Cc1ccccc1)C(=O)N[C@H](C(=O)N[C@@H](CC(N)=O)C(=O)N[C@@H](Cc1c[nH]c2ccccc12)C(=O)N[C@@H](CC(C)C)C(=O)N[C@@H](CC(C)C)C(=O)N[C@@H](C)C(=O)NC(C)(C)C(=O)N[C@@H](CCCCN)C(N)=O)C(C)C) [Compound 5] | 0.031 | 0.023 |
| H-Y[Aib]EGTFTSDYSIYLEKK([γGlu-Palmitoyl])AAKEFVEWLLSAGPSSGAPPPS-NH2 (SMILES CCCCCCCCCCCCCCCC(=O)N[C@@H](CCC(=O)NCCCC[C@H](NC(=O)[C@H](CCCCN)NC(=O)[C@H](CCC(=O)O)NC(=O)[C@H](CC(C)C)NC(=O)[C@H](Cc1ccc(O)cc1)NC(=O)[C@@H](NC(=O)[C@H](CO)NC(=O)[C@H](Cc1ccc(O)cc1)NC(=O)[C@H](CC(=O)O)NC(=O)[C@H](CO)NC(=O)[C@@H](NC(=O)[C@H](Cc1ccccc1)NC(=O)[C@@H](NC(=O)CNC(=O)[C@H](CCC(=O)O)NC(=O)C(C)(C)NC(=O)[C@@H](N)Cc1ccc(O)cc1)[C@@H](C)O)[C@@H](C)O)[C@@H](C)CC)C(=O)N[C@@H](C)C(=O)N[C@@H](C)C(=O)N[C@@H](CCCCN)C(=O)N[C@@H](CCC(=O)O)C(=O)N[C@@H](Cc1ccccc1)C(=O)N[C@H](C(=O)N[C@@H](CCC(=O)O)C(=O)N[C@@H](Cc1c[nH]c2ccccc12)C(=O)N[C@@H](CC(C)C)C(=O)N[C@@H](CC(C)C)C(=O)N[C@@H](CO)C(=O)N[C@@H](C)C(=O)NCC(=O)N1CCC[C@H]1C(=O)N[C@@H](CO)C(=O)N[C@@H](CO)C(=O)NCC(=O)N[C@@H](C)C(=O)N1CCC[C@H]1C(=O)N1CCC[C@H]1C(=O)N1CCC[C@H]1C(=O)N[C@@H](CO)C(N)=O)C(C)C)C(=O)O) [Compound 54] | 0.037 | 0.033 |
| YAEGTFTSDYSIALDKKAQRAFVNWLVAAKPSSGAPPPS (Aib at 2 and 29; K(hexadecanoyl-isoGlu) at 17; C-terminal amide) [Compound 36] |  | 0.015 |
